Sequences and labels used below:
B1: antibody PSf34.1 (antibody, V domains shown)
VH: EVQLEESGAELVKPGASVKLSCTASGFYIKDTYIHWVKQRPEEVLEWIGGIDPADGDTRYDPKFQGKATITADTSSNSAYLHLTSLTSEDTAVYFCARELAYWGAGTTVTVS
VL: not shown
notes: also called mAb PSf34.1
B2: antibody PSf42.3 (antibody, V domains shown)
VH: EVQLQQSGAELAKPGASVKLSCTGSGFNIKDTYMHWVKQRPEQGLEWIGGIDPETGNTKFDPRFQDKATITSDTSSNTVLLQLSSLTSEDTAVYYCANLGRPFAHWGQGTTVTVS
VL: HSADPVSISCKSSQSLLHRDGKTYLNWVFQRPGQSPQRLIYLVSLVDSGVPDRFTGSGSGTDFTLKINRVEAEDLGVYYCWQGTHFPRTFGGGTKLEIKR
B3: antibody PSf47.1 (antibody, V domains shown)
VH: EVKLQESGPDLVKPGASVKVSCKASGYTFTVYVIHWVIQKPGQGLEWIGYINPYNDGAEYNENFKGKATLTSDKSSSTAYMELSSLTSEDSAVYYCTRGENYYTSRYGFFDVWGQGTTVTVS
VL: DILMPQSPSSLAVSAGEKVTMSCKSSQSLLNSRTRKNYLAWYQQKLGQSPKLLIYWASTRESGVPDRFTGSGSGTDFTLTISSVQAEDLAVYYCKQSYNFITFGAGTKLELKR
notes: also called mAb PSf47.1
B4: antibody PSf42.4 (antibody, V domains shown)
VH: EVKLQQSGAELVKPGASVKLSCTASGFSIRDTYMHWVRQRPEQGLEWITGIDPENGNSKYAPRFQDKATIIADTSSNTVHLQLDTLTSEDTAVYYCTRELAYWGQGTTVTVS
VL: DILMTQSPLTLSVIIGQPASFSCKSSHSLLHRDGRTYLNWLLQRPGQSPQRLIYLVSKLDSGVPDRFTGSGSGTDFTLKISRVEAEDLGVYYCWQGTHFPRTFGGGTKLEIKR
B5: antibody PSf42.1 (antibody, V domains shown)
VH: EVQLEESGAEFVRPGAAVKLSCTVSGLNIKDSYLHWVKQRPEQGLEWIGGIDPANGDVEYDPKFQGKAAITADTSSNTAYLRLSSLTSEDTAVYYCAPFPYWGAGTTVTVS
VL: B4 VL

The assay deals with T1, prostate specific membrane antigen (PSMA) on LNCaP cells (human, UniProt Q04609 1-750).
T1 construct: also called PSMA-expressing cells
T1 sequence (Q04609 whole entry): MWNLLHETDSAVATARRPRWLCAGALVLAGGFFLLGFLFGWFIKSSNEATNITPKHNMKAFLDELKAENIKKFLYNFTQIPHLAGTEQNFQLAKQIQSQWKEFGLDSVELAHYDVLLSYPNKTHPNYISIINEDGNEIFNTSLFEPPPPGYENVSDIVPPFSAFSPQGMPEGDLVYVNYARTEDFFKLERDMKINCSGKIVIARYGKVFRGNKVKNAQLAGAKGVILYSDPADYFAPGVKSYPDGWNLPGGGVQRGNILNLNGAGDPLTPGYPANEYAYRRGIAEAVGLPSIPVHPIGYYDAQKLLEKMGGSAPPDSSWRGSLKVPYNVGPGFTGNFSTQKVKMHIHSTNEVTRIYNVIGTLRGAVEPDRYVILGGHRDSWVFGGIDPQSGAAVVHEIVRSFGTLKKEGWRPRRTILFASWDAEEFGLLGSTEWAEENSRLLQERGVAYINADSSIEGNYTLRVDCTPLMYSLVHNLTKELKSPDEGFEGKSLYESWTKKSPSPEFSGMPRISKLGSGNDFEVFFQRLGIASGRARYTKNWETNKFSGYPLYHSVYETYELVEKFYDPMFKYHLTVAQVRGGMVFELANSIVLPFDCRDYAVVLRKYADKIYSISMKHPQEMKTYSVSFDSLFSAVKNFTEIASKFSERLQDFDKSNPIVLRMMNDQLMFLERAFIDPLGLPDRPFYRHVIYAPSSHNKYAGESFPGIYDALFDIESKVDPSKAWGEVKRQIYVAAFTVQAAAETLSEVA
In words: saturation binding on whole LNCaP cells, detected with 125I goat anti-mouse IgG.
Experimental: Antibody binding assay: Saturation binding studies were performed on whole cells with purified anti-PSMA MAb followed by detection of cellbound MAb using ¹²⁵I-labeled goat anti-mouse IgG. Briefly, nearly confluent LNCaP cells were rinsed with ice-cold PBS and scraped in PBS containing the protease inhibitor cocktail described above. Cells (7.5×10⁶ per tube) were incubated with 100 μL of antibody diluted in complete RPMI to various concentrations for 1 h at room temperature. […] Following removal of unbound secondary antibody by centrifugation, the radioactivity associated with the cell pellet was determined using a gamma counter. Non-specific binding was determined in the presence of a 100-fold molar excess of the antibody antigen PSMA₄₉₀₋₅₀₀. […] For these experiments, a parallel sample in which the primary MAb was replaced by diluent served as a control for background binding of the secondary antibody and was less than 0.5%. Counts were analyzed by non-linear regression of total binding (Y) according to the law of mass action using the formula Y=Bmax*X/(Kd+X), where Bmax, Kd, and X represent the maximal binding, the concentration of ligand at half maximal binding, and the concentration of primary antibody, respectively. The ¹²⁵I-labeled goat anti-mouse IgG used in these experiments was radio-iodinated using the chloramine T method. Briefly, 10 μg of goat anti-mouse IgG whole molecule was incubated with 300 pmol of chloramine T and 90 μCi of [¹²⁵I] sodium iodide in a final volume of 25 μL containing 0.5 M sodium phosphate (pH 7.5) for 20 min at room temperature before quenching the reaction with 100 μL of sodium metabisulfite at 2.6 mg/mL in 0.5 M sodium phosphate buffer (pH 7.5). The labeled antibody was purified from free iodide by gel filtration on Sephadex G25. The amount of free iodide contaminating the labeled antibody was evaluated by ITLC-SG and never exceeded 1%.
As for B1, the Bmax is 4.8 pmol/mg.

What is called Kd is the concentration at which binding is half-saturated. A low value points to a tighter complex. B2 registered a Bmax of 4.9 pmol/mg and a Kd of 20.4 nM. As for B3, the Bmax came out at 4.6 pmol/mg. B4: the Bmax is 5.1 pmol/mg and the Kd was determined as 34.1 nM. The like results for B5 were, in that order, 2.8 pmol/mg and 14.7 nM.
